Square brackets hold non-standard residues; d marks the D form. Ends that are not written are not given here. hArg = N=C(N)NCCCC[C@H](N)C(=O)O
Tests used:
[1] = biological target: T1, RXFP1 (LGR7) receptor, on stably transfected HEK-293T cells (UniProt Q9HBX9 1-757, limits assumed); test: Eu-H2 relaxin competition, whole HEK-293T cells stably expressing RXFP1
T1 construct: whole, on cells; also called HEK-RXFP1 cells
T1 sequence (looked up): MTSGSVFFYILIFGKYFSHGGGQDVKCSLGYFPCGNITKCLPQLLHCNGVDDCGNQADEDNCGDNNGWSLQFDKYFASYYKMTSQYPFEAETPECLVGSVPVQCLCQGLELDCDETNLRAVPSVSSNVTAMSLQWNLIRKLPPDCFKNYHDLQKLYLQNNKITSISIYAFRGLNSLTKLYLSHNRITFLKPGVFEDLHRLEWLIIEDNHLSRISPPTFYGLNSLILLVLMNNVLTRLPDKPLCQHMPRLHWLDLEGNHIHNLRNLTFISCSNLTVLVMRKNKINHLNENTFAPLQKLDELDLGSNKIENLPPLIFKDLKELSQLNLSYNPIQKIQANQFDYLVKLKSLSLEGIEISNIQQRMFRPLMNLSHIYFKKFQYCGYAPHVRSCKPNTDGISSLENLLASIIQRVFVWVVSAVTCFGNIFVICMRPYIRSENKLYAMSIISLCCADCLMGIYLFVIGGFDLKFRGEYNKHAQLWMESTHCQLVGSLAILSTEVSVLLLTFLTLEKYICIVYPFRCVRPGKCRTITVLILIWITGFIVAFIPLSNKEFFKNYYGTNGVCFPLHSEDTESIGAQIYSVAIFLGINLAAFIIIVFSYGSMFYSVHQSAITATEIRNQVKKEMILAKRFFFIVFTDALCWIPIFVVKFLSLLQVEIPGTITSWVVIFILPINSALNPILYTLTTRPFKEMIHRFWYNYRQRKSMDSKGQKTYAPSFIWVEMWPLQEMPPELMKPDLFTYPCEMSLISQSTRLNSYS
Description: Human embryonic kidney (HEK-293T) cells stably transfected with RXFP1 were cultured in RPMI 1640 medium supplemented with 10% fetal calf serum, 100 μg/ml penicillin, 100 μg/ml streptomycin and 2 mM L-glutamine and plated into 96-well pre-coated with poly-L-lysine for whole cell binding assays. Competition binding experiments were conducted with Eu³⁺-labelled H2 relaxin (as per Shabanpoor et al., 2012, Biochem Biophys Res Commun. 420, 253-256) in the absence or presence of increasing concentrations of unlabelled relaxin-2 B chain derivatives. Nonspecific binding was determined with an excess of unlabelled peptides (500 nM H2 relaxin). Fluorescent measurements were recorded at an excitation wavelength of 340 nm and emission of 614 nm on a Victor plate reader (Perkin-Elmer Inc.). […] Statistical differences in pIC₅₀ values were analyzed using one-way analysis of variance coupled to Newman Keul's multiple comparison test for multiple group comparisons in GraphPad Prism 6.
#p < 0.001 vs H2 relaxin ¹Data are presented as the mean ± S.E of the percentage of the total specific binding of triplicate wells, repeated in at least three separate experiments, and curves were fitted using one-site binding curves in GraphPad Prism 6 (GraphPad Inc, San Diego, CA).

[2] = biological target: T1, RXFP1 (LGR7) receptor, on stably …; test: cell-based or functional assay
[3] = biological target: T2, 7BP: fusion protein comprising the extracellular domain of RXFP1 and the transmembrane domain of CD8, on cells (UniProt Q9HBX9 1-409); test: Eu-H2 relaxin competition on 7BP cells
T2 construct: extracellular domain;domain: transmembrane domain; also called 7BP cells; not shown: transmembrane domain of CD8
T2 sequence (looked up): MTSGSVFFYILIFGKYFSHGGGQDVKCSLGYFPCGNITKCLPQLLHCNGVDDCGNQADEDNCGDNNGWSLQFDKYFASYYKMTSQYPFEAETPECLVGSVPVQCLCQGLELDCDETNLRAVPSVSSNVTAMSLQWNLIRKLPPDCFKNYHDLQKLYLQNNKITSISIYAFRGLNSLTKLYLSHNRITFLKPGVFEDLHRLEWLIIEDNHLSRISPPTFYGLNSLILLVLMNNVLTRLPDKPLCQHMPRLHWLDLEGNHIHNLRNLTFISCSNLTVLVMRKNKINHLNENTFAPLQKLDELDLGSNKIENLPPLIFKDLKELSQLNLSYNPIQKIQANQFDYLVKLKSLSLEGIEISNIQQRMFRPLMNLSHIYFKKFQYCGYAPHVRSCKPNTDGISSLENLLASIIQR

[4] = biological target: T3, RXFP1 (LGR7) receptor, on stably transfected HEK-293T cells (UniProt Q9HBX9); test: cell-based or functional assay
T3 sequence (looked up): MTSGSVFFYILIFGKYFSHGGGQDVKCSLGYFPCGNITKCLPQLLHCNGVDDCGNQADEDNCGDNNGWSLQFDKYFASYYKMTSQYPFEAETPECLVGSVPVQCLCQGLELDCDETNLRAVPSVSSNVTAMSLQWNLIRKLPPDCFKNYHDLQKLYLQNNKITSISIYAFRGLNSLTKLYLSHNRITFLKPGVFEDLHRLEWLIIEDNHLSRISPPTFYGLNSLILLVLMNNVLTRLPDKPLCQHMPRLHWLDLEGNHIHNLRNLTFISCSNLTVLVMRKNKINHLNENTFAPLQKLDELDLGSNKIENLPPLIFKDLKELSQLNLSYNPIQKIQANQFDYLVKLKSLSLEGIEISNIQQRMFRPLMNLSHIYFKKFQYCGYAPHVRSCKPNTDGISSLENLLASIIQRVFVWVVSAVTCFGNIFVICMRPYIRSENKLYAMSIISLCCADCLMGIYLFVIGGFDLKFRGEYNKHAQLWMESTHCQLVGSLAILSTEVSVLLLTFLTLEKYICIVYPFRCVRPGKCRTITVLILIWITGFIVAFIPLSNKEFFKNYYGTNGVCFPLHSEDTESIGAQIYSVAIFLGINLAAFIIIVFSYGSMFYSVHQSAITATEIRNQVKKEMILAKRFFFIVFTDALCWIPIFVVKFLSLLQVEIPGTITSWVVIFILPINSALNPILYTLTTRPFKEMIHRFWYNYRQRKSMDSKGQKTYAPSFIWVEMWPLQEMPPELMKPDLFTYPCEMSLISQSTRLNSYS

Binder	pKi [1] [log M]	cAMP pEC50 [2] [log M]	pKi [3] [log M]	cAMP pEC50 [4] [log M]
DSWMEEVIKLCGRELVRAQIAICGMSTWSKRSL-NH2 (not fully specified (bridges); printed as DSWMEEVIKLCGRELVRAQIAICGMSTWSKRSL-NH2; cysteine pairing not given here) [B1-33ox]	6.61	< 5		
DSWMEEVIKLSGRELVRAQIAISGMSTWSKRSL-NH2 [B1-33 C11.23S]	5.33	5.1		
VIKLSGRELV[hArg]AQIAISGMSTWSKRSL-NH2 (N-terminus assumed; SMILES CC[C@H](C)[C@H](NC(=O)[C@H](C)NC(=O)[C@@H](NC(=O)[C@H](CCC(N)=O)NC(=O)[C@H](C)NC(=O)[C@H](CCCCNC(=N)N)NC(=O)[C@@H](NC(=O)[C@H](CC(C)C)NC(=O)[C@H](CCC(=O)O)NC(=O)[C@H](CCCNC(=N)N)NC(=O)CNC(=O)[C@H](CO)NC(=O)[C@H](CC(C)C)NC(=O)[C@H](CCCCN)NC(=O)[C@@H](NC(=O)[C@@H](N)C(C)C)[C@@H](C)CC)C(C)C)[C@@H](C)CC)C(=O)N[C@@H](CO)C(=O)NCC(=O)N[C@@H](CCSC)C(=O)N[C@@H](CO)C(=O)N[C@H](C(=O)N[C@@H](Cc1c[nH]c2ccccc12)C(=O)N[C@@H](CO)C(=O)N[C@@H](CCCCN)C(=O)N[C@@H](CCCNC(=N)N)C(=O)N[C@@H](CO)C(=O)N[C@@H](CC(C)C)C(N)=O)[C@@H](C)O) [B7-33 C11.23S R17HR]	6.52	< 5		
native H2 relaxin (human relaxin-2, heterodimer of A chain and B1-29 B chain) (ligand, disulfide (positions not given here); ends not checked; also: three disulfides (two inter-chain, one within A chain), places not given here, mature; Two chains linked by three disulfide bonds (two inter-chain, one within the A chain); also called native human relaxin-2; Eu^3+-labelled H2 relaxin (tracer form)) chain 1: QLYSALANKCCHVGCTKRSLARFC chain 2: DSWMEEVIKLCGRELVRAQIAICGMSTWS	8.96	10.5	8.97	
Ac-VIKLSGRELVRAQIAISGMSTWSKKKK-NH2 (AcB7-29 C11.23S with KKKK at the C-terminus in place of KRSL) [KKKK (AcB7-29 C11.23S)]	6.25	5.81	8.91	
VIKLSGRELVRAQIAISGMSTWS-NH2 [B7-29 C11.23S]		< 5		
VIKLCGRELVRAQIAICGMSTWSKRSL-NH2 (not fully specified; printed as VIKLCGRELVRAQIAICGMSTWSKRSL-NH2; also: oxidised (ox), disulfide pattern not described, also called B7-33ox) [Native B7-33]	6.15	5.11		
Ac-VIKLSGAELVRAQIAISGMSTWSKRSL-NH2 [R13A (AcB7-33 C11.23S)]			5.76	< 5
Ac-VIKLSGRELVRAQAAISGMSTWSKRSL-NH2 [I20A (AcB7-33 C11.23S)]		< 5		
VIKLSGRELVRAQIAISGMSTWSKRSL-NH2 (also called single chain B7-33 C11.23S peptide) [Modified B7-33 (B7-33 C11.23S)]	5.54	5.12	7.65	
Ac-VIKLSGAELVAAQAAISGMSTWSKRSL-NH2 [R13/17A I20A (AcB7-33 C11.23S)]			5.54	< 5
VIKLSGRELVKAQIAISGMSTWSKRSL-NH2 [B7-33 C11.23S R17K]		< 5		
Ac-VIKLSGRELVRAQIAISGMSTWSKRSL-NH2 [AcB7-33 C11.23S]	6	5.4	7.54	
Ac-VIKLSGRELVAAQIAISGMSTWSKRSL-NH2 [R17A (AcB7-33 C11.23S)]			6.01	< 5

— patent US20170037106A1 (FLOREY INSTITUTE OF NEUROSCIENCE AND MENTAL HEALTH, published 2017)
